Assay results: article PMC6858872 (Nature structural & molecular biology, 2019)
Where “and” joins values, the source holds several entries; their conditions need not be identical. Identical values can stand only once. Like-named read-outs stand apart in the source and are kept apart here.

B1: IRE1 LD (human IRE1 luminal domain, 32-440) (domain or fragment)
chain: LLFVSTLDGSLHAVSKRTGSIKWTLKEDPVLQVPTHVEEPAFLPDPNDGSLYTLGSKNNEGLTKLPFTIPELVQASPCRSSDGILYMGKKQDIWYVIDLLTGEKQQTLSSAFADSLCPSTSLLYLGRTEYTITMYDTKTRELRWNATYFDYAASLPEDDVDYKMSHFVSNGDGLVVTVDSESGDVLWIQNYASPVVAFYVWQREGLRKVMHINVAVETLRYLTFMSGEVGRITKWKYPFPKETEAKSKLTPTLYVGKYSTSLYASPSMVHEGVAVVPRGSTLPLLEGPQTDGVTIGDKGECVITPSTDVKFDPGLKSKNKLNYLRNYWLLIGHHETPLSASTKMLERFPNNLPKHRENVIPADSEKKSFEEVINLVDQTSENAPTTVSRDVEEKPAHAPARPEAPVDSM
B2: CH1 (immunoglobulin fragment, inherently misfolded without CL) (domain or fragment)
chain: not shown

Experiments:
SEC = target: the molecule itself; assay: SEC
YFP-BiP [1] = target: T1, YFP-BiP (human, UniProt P11021 28-654); assay: FRET or BRET
YFP-BiP [2] = target: T1, YFP-BiP; assay: FRET or BRET; remark: listed apart in the source
YFP-BiP [3] = target: T1, YFP-BiP; assay: FRET or BRET; remark: listed apart in the source

Row | Binder | stoichiometry N (SEC) | Ki of the high concentration phase (Ki^High) (YFP-BiP [1]) [µM] | Ki of the high concentration phase (Ki^High) (YFP-BiP [2]) [µM] | Ki of the high concentration phase (Ki^High) (YFP-BiP [3]) [µM]
1 | B1 | 2 and 4 | – | – | –
2 | B2 | – | 5.2 ± 0.6 | 0.2 ± 0.01 | 4.3 ± 0.4
